Experimental data reported in PMC6433461.

Target: ParB2^S68C-AlexaFluor488 (B. subtilis) (UniProt P26497)

B1: ParB2^S68C-AlexaFluor488 (natural protein)
chain: MAKGLGKGINALFNQVDLSEETVEEIKIADLRPNPYQPRKHFDDEALAELKESVLQHGILQPLIVRKCLKGYDIVAGERRFRAAKLAGLDTVPAIVRELSEALMREIALLENLQREDLSPLEEAQAYDSLLKHLDLTQEQLAKRLGKSRPHIANHLRLLTLPENIQQLIAEGTLSMGHGRTLLGLKNKNKLEPLVQKVIAEQLNVRQLEQLIQQLNQNVPRETKKKEPVKDAVLKERESYLQNYFGTTVNIKRQKKKGKIEIEFFSNEDLDRILELLSERES
modifications: Alexa Fluor 488 C5 maleimide coupled to the cysteine of S68C; approximate efficiency of 2 dyes per ParB monomer as printed
- percentage of single DNA molecules condensed by 250 nM ParB^AF alone at permissive forces, Mg2+ buffer, combined lateral MT-TIRF: 83%
